Laboratory results published in patent US20260184777A1 (BEIJING SUNGEN BIOMEDICAL TECHNOLOGY, published 2026).

T1: human S100A8/A9 heterodimeric antigen, His-tagged (hS100A8/A9-His) (human, UniProt P05109 1-93; P06702 1-114)
T1 sequence 1: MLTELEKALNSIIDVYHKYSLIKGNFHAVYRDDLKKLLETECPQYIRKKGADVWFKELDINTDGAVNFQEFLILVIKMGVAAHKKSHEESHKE
T1 sequence 2: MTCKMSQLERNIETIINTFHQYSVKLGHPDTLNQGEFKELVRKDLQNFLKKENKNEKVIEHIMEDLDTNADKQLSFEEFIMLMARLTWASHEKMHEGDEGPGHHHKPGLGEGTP


biological target: T1, human S100A8/A9 heterodimeric antigen, …; test: cell-based or functional assay

Row | Relative IC50 (IC50 relative to CM-1), IL-6 release from hS100A8/A9-activated human PBMCs | Binder
1 | 1.47 relative to CM-1 | CM-96 (antibody, human IgG4 S228P, lambda, V domains shown) VH: EVQLVESGGGLVQPGGSLRLSCAASGFTFSDYAMSWVRQAPGKGLEWVSAISGSGGSTYYAASVKGRFTISRDNSKNTLYLQMNSLRAEDTAVYYCARKYRPSRVFDAWGQGTLVTVSS VL: SYELTQPPSVSVAPGQTARITCSGDALGDKYMSWYQQKPGQAPVLVIYEDAKRPSGIPERFSGSNSGNTATLTISGTQAEDEADYYCQSNDADAWWVFGGGTKLTVLG
2 | 1.34 relative to CM-1 | CM-115 (antibody, human IgG4 S228P, lambda, V domains shown) VH: EVQLVESGGGLVQPGGSLRLSCAASGFTWSDYAMSWVRQAPGKGLEWVSAISGSGGSTYYAASVKGRFTISRDNSKNTLYLQMNSLRAEDTAVYYCARKYRPSRVFDAWGQGTLVTVSS VL: SYELTQPPSVSVAPGQTARITCSGDALGDKYASWYQQKPGQAPVLVIYEDAKRPSGIPERFSGSNSGNTATLTISGTQAEDEADYYCQSNDADAWWVFGGGTKLTVLG
3 | 1.5 relative to CM-1 | CM-108 (antibody, human IgG4 S228P, lambda, V domains shown) VH: EVQLVESGGGLVQPGGSLRLSCAASGFTFSDYAMSWVRQAPGKGLEWVSAISGSGGSHYYAASVKGRFTISRDNSKNTLYLQMNSLRAEDTAVYYCARKYRPSRVFDAWGQGTLVTVSS VL: SYELTQPPSVSVAPGQTARITCSGDALGDKYASWYQQKPGQAPVLVIYEDAKRPDGIPERFSGSNSGNTATLTISGTQAEDEADYYCQSNDADAYWVFGGGTKLTVLG
4 | 1.5 relative to CM-1 | CM-105 (antibody, human IgG4 S228P, lambda, V domains shown) VH: EVQLVESGGGLVQPGGSLRLSCAASGFTFSDYAMSWVRQAPGKGLEWVSAISGSGGSHYYAASVKGRFTISRDNSKNTLYLQMNSLRAEDTAVYYCARKYRPSRVFDAWGQGTLVTVSS VL: SYELTQPPSVSVAPGQTARITCSGDALHDKYAAWYQQKPGQAPVLVIYEDAKRPSGIPERFSGSNSGNTATLTISGTQAEDEADYYCQSNDADAVWVFGGGTKLTVLG
5 | 0.475 relative to CM-1 | CM-109 (antibody, human IgG4 S228P, lambda, V domains shown) VH: EVQLVESGGGLVQPGGSLRLSCAASGFTFSDYAMSWVRQAPGKGLEWVSAISGSGGSHYYAASVKGRFTISRDNSKNTLYLQMNSLRAEDTAVYYCARKYRPSRVFDAWGQGTLVTVSS VL: SYELTQPPSVSVAPGQTARITCSGDALHDKYASWYQQKPGQAPVLVIYEHHKRPSGIPERFSGSNSGNTATLTISGTQAEDEADYYCQSNDADAVWVFGGGTKLTVLG
6 | 1.76 relative to CM-1 | CM-104 (antibody, human IgG4 S228P, lambda, V domains shown) VH: EVQLVESGGGLVQPGGSLRLSCAASGFTFSDYAMSWVRQAPGKGLEWVSAISGSGGSHYYAASVKGRFTISRDNSKNTLYLQMNSLRAEDTAVYYCARKYRPSRVFDAWGQGTLVTVSS VL: SYELTQPPSVSVAPGQTARITCSGDALGDKYASWYQQKPGQAPVLVIYEDAKRPSGIPERFSGSNSGNTATLTISGTQAEDEADYYCQSNDADAYWVFGGGTKLTVLG
7 | 0.738 relative to CM-1 | CM-112 (antibody, human IgG4 S228P, lambda, V domains shown) VH: EVQLVESGGGLVQPGGSLRLSCAASGFTFSSYAMSWVRQAPGKGLEWVSAISGSGGSHYYAASVKGRFTISRDNSKNTLYLQMNSLRAEDTAVYYCARKYRPSRVFDAWGQGTLVTVSS VL: SYELTQPPSVSVAPGQTARITCSGDALHDKYASWYQQKPGQAPVLVIYEDAKRPSGIPERFSGSNSGNTATLTISGTQAEDEADYYCQSNDADAVWVFGGGTKLTVLG
8 | 0.386 relative to CM-1 | CM-107 (antibody, human IgG4 S228P, lambda, V domains shown) VH: EVQLVESGGGLVQPGGSLRLSCAASGFTFSDYAMSWVRQAPGKGLEWVSAISGSGGSHYYAASVKGRFTISRDNSKNTLYLQMNSLRAEDTAVYYCARKYRPSRVFDAWGQGTLVTVSS VL: SYELTQPPSVSVAPGQTARITCSGDALGDKYASWYQQKPGQAPVLVIYEHHKRPSGIPERFSGSNSGNTATLTISGTQAEDEADYYCQSNDADAVWVFGGGTKLTVLG
9 | 0.687 relative to CM-1 | CM-103 (antibody, human IgG4 S228P, lambda, V domains shown) VH: EVQLVESGGGLVQPGGSLRLSCAASGFTFSDYAMSWVRQAPGKGLEWVSAISGSGGSHYYAASVKGRFTISRDNSKNTLYLQMNSLRAEDTAVYYCARKYRPSRVFDAWGQGTLVTVSS VL: SYELTQPPSVSVAPGQTARITCSGDALGDKYASWYQQKPGQAPVLVIYEDAKRPSGIPERFSGSNSGNTATLTISGTQAEDEADYYCQSNDADARWVFGGGTKLTVLG
10 | 0.442 relative to CM-1 | CM-113 (antibody, human IgG4 S228P, lambda, V domains shown) VH: EVQLVESGGGLVQPGGSLRLSCAASGFTFSSYAMSWVRQAPGKGLEWVSAISGSGGSHYYAASVKGRFTISRDNSKNTLYLQMNSLRAEDTAVYYCARKYRPSRVFDAWGQGTLVTVSS VL: SYELTQPPSVSVAPGQTARITCSGDALHDKYAAWYQQKPGQAPVLVIYEDAKRPSGIPERFSGSNSGNTATLTISGTQAEDEADYYCQSNDADAVWVFGGGTKLTVLG
11 | 0.899 relative to CM-1 | CM-114 (antibody, human IgG4 S228P, lambda, V domains shown) VH: EVQLVESGGGLVQPGGSLRLSCAASGFTFSSYAMSWVRQAPGKGLEWVSAISGSGGSHYYAASVKGRFTISRDNSKNTLYLQMNSLRAEDTAVYYCARKYRPSRVFDAWGQGTLVTVSS VL: SYELTQPPSVSVAPGQTARITCSGDALGDKYASWYQQKPGQAPVLVIYEHHKRPSGIPERFSGSNSGNTATLTISGTQAEDEADYYCQSNDADAVWVFGGGTKLTVLG
12 | 0.599 relative to CM-1 | CM-97 (antibody, human IgG4 S228P, lambda, V domains shown) VH: EVQLVESGGGLVQPGGSLRLSCAASGFTFSDYAMSWVRQAPGKGLEWVSAISGSGGSTYYAASVKGRFTISRDNSKNTLYLQMNSLRAEDTAVYYCARKYRPSRVFDAWGQGTLVTVSS VL: SYELTQPPSVSVAPGQTARITCSGDALGDKYASWYQQKPGQAPVLVIYEDAKRPYGIPERFSGSNSGNTATLTISGTQAEDEADYYCQSNDADAWWVFGGGTKLTVLG
13 | 0.878 relative to CM-1 | CM-110 (antibody, human IgG4 S228P, lambda, V domains shown) VH: EVQLVESGGGLVQPGGSLRLSCAASGFTFSSYAMAWVRQAPGKGLEWVSAISGSGGSTYYAASVKGRFTISRDNSKNTLYLQMNSLRAEDTAVYYCARKYRPSRVFDAWGQGTLVTVSS VL: SYELTQPPSVSVAPGQTARITCSGDALHDKYASWYQQKPGQAPVLVIYEDAKRPSGIPERFSGSNSGNTATLTISGTQAEDEADYYCQSNDADAVWVFGGGTKLTVLG
14 | 0.464 relative to CM-1 | CM-102 (antibody, human IgG4 S228P, lambda, V domains shown) VH: EVQLVESGGGLVQPGGSLRLSCAASGFTFSDYAMSWVRQAPGKGLEWVSAISGSGGSHYYAASVKGRFTISRDNSKNTLYLQMNSLRAEDTAVYYCARKYRPSRVFDAWGQGTLVTVSS VL: SYELTQPPSVSVAPGQTARITCSGDALGDKYASWYQQKPGQAPVLVIYEDAKRPSGIPERFSGSNSGNTATLTISGTQAEDEADYYCQSNDADAWWVFGGGTKLTVLG
15 | 1.12 relative to CM-1 | CM-100 (antibody, human IgG4 S228P, lambda, V domains shown) VH: EVQLVESGGGLVQPGGSLRLSCAASGFTFSDYAMSWVRQAPGKGLEWVSAISGSGGSHYYAASVKGRFTISRDNSKNTLYLQMNSLRAEDTAVYYCARKYRPSRVFDAWGQGTLVTVSS VL: SYELTQPPSVSVAPGQTARITCSGDALHDKYASWYQQKPGQAPVLVIYEDAKRPSGIPERFSGSNSGNTATLTISGTQAEDEADYYCQSNDADAVWVFGGGTKLTVLG
16 | 0.352 relative to CM-1 | CM-106 (antibody, human IgG4 S228P, lambda, V domains shown) VH: EVQLVESGGGLVQPGGSLRLSCAASGFTFSDYAMSWVRQAPGKGLEWVSAISGSGGSHYYAASVKGRFTISRDNSKNTLYLQMNSLRAEDTAVYYCARKYRPSRVFDAWGQGTLVTVSS VL: SYELTQPPSVSVAPGQTARITCSGDALHDKYASWYQQKPGQAPVLVIYEDAKRPSGIPERFSGSNSGNTATLTISGTQAEDEADYYCQSNDADAYWVFGGGTKLTVLG
17 | 1.3 relative to CM-1 | CM-99 (antibody, human IgG4 S228P, lambda, V domains shown) VH: EVQLVESGGGLVQPGGSLRLSCAASGFTFSDYAMSWVRQAPGKGLEWVSAISGSGGSHYYAASVKGRFTISRDNSKNTLYLQMNSLRAEDTAVYYCARKYRPSRVFDAWGQGTLVTVSS VL: SYELTQPPSVSVAPGQTARITCSGDALGDKYASWYQQKPGQAPVLVIYEDAKRPSGIPERFSGSNSGNTATLTISGTQAEDEADYYCQSNDADAVWVFGGGTKLTVLG
18 | 0.683 relative to CM-1 | CM-101 (antibody, human IgG4 S228P, lambda, V domains shown) VH: EVQLVESGGGLVQPGGSLRLSCAASGFTFSDYAMSWVRQAPGKGLEWVSAISGSGGSHYYAASVKGRFTISRDNSKNTLYLQMNSLRAEDTAVYYCARKYRPSRVFDAWGQGTLVTVSS VL: SYELTQPPSVSVAPGQTARITCSGDALGDKYAAWYQQKPGQAPVLVIYEDAKRPSGIPERFSGSNSGNTATLTISGTQAEDEADYYCQSNDADAVWVFGGGTKLTVLG
19 | 0.703 relative to CM-1 | CM-98 (antibody, human IgG4 S228P, lambda, V domains shown) VH: EVQLVESGGGLVQPGGSLRLSCAASGFTFSDYAMSWVRQAPGKGLEWVSAISGSGGSTYYAASVKGRFTISRDNSKNTLYLQMNSLRAEDTAVYYCARKYRPSRVFDAWGQGTLVTVSS VL: SYELTQPPSVSVAPGQTARITCSGDALGDKYASWYQQKPGQAPVLVIYEDAKRPWGIPERFSGSNSGNTATLTISGTQAEDEADYYCQSNDADAWWVFGGGTKLTVLG
20 | 1.08 relative to CM-1 | CM-111 (antibody, human IgG4 S228P, lambda, V domains shown) VH: EVQLVESGGGLVQPGGSLRLSCAASGFTFSSYAMSWVRQAPGKGLEWVSAISGHGGSTYYAASVKGRFTISRDNSKNTLYLQMNSLRAEDTAVYYCARKYRPSRVFDAWGQGTLVTVSS VL: SYELTQPPSVSVAPGQTARITCSGDALGDKYAAWYQQKPGQAPVLVIYEDAKRPSGIPERFSGSNSGNTATLTISGTQAEDEADYYCQSNDADAVWVFGGGTKLTVLG
